Results as given in paper PMC4022432, “Complete steady-state rate equation for DNA ligase and its use for measuring product kinetic parameters of NAD^+-dependent DNA ligase from Haemophilus influenzae” (BMC Research Notes, 2014).

Substrate: NC(=O)c1ccc[n+]([C@@H]2O[C@H](COP(=O)(O)OP(=O)(O)OC[C@H]3O[C@@H](n4cnc5c(N)ncnc54)[C@H](O)[C@@H]3O)[C@@H](O)[C@H]2O)c1
Assay: purified protein
Settings: co-substrate nicked DNA 10-80 nM; room temperature; value from NMN study
Description: FRET nick-ligation assay, global nonlinear least-squares fit of NMN product inhibition on NAD^+-dependent DNA ligase from Haemophilus influenzae

B1: NAD^+-dependent DNA ligase from Haemophilus influenzae (Haemophilus influenzae Rd KW20) (protein)
chain: MTNIQTQLDNLRKTLRQYEYEYHVLDNPSVPDSEYDRLFHQLKALELEHPEFLTSDSPTQRVGAKPLSGFSQIRHEIPMLSLDNAFSDAEFNAFVKRIEDRLILLPKPLTFCCEPKLDGLAVSILYVNGELTQAATRGDGTTGEDITANIRTIRNVPLQLLTDNPPARLEVRGEVFMPHAGFERLNKYALEHNEKTFANPRNAAAGSLRQLDPNITSKRPLVLNAYGIGIAEGVDLPTTHYARLQWLKSIGIPVNPEIRLCNGADEVLGFYRDIQNKRSSLGYDIDGTVLKINDIALQNELGFISKAPRWAIAYKFPAQEELTLLNDVEFQVGRTGAITPVAKLEPVFVAGVTVSNATLHNGDEIERLNIAIGDTVVIRRAGDVIPQIIGVLHERRPDNAKPIIFPTNCPVCDSQIIRIEGEAVARCTGGLFCAAQRKEALKHFVSRKAMDIDGVGGKLIEQLVDRELIHTPADLFKLDLTTLTRLERMGAKSAENALNSLENAKSTTLARFIFALGIREVGEATALNLANHFKTLDALKDANLEELQQVPDVGEVVANRIFIFWREAHNVAVVEDLIAQGVHWETVEVKEASENLFKDKTVVLTGTLTQMGRNEAKALLQQLGAKVSGSVSSKTDFVIAGDAAGSKLAKAQELNITVLTEEEFLAQITR
Work on B1 yielded a Km of 0.65 ± 0.08 µM.
